Molecular target: the molecule itself
Experiment: SEC + native gel or EMSA

B1: C-terminally truncated Mycobacterium tuberculosis MmpL3 (ΔC Mtb-MmpL3, aa 1–753) (domain or fragment)
chain: MFAWWGRTVYRYRFIVIGVMVALCLGGGVFGLSLGKHVTQSGFYDDGSQSVQASVLGDQVYGRDRSGHIVAIFQAPAGKTVDDPAWSKKVVDELNRFQQDHPDQVLGWAGYLRASQATGMATADKKYTFVSIPLKGDDDDTILNNYKAIAPDLQRLDGGTVKLAGLQPVAEALTGTIATDQRRMEVLALPLVAVVLFFVFGGVIAAGLPVMVGGLCIAGALGIMRFLAIFGPVHYFAQPVVSLIGLGIAIDYGLFIVSRFREEIAEGYDTETAVRRTVITAGRTVTFSAVLIVASAIGLLLFPQGFLKSLTYATIASVMLSAILSITVLPACLGILGKHVDALGVRTLFRVPFLANWKISAAYLNWLADRLQRTKTREEVEAGFWGKLVNRVMKRPVLFAAPIVIIMILLIIPVGKLSLGGISEKYLPPTNSVRQAQEEFDKLFPGYRTNPLTLVIQTSNHQPVTDAQIADIRSKAMAIGGFIEPDNDPANMWQERAYAVGASKDPSVRVLQNGLINPADASKKLTELRAITPPKGITVLVGGTPALELDSIHGLFAKMPLMVVILLTTTIVLMFLAFGSVVLPIKATLMSALTLGSTMGILTWIFVDGHFSKWLNFTPTPLTAPVIGLIIALVFGLSTDYEVFLVSRMVEARERGMSTQEAIRIGTAATGRIITAAALIVAVVAGAFVFSDLVMMKYLAFGLMAALLLDATVVRMFLVPSVMKLLGDDCWWAPRWARRLQTRIGLGEIHLPD
notes: also called Mtb-MmpL3 ΔC; Mtb MmpL3 ΔC
B1: binds.

Source: publication PMC11352979, “The mycobacterium lipid transporter MmpL3 is dimeric in detergent solution, SMALPs and reconstituted nanodiscs†” (RSC Chemical Biology, 2024)
